For experiment [1], the target named is T1, human CCR5 (human, UniProt P51681 1-352).
T1 construct: whole, on cells; also called CC chemokine receptor CCR5; CD 195
The experiment in a line: epitope mapping with alanine mutants of CCR5.

The target of experiment [2] is T1, human CCR5. As to the kind of experiment: cell-based or functional assay.
The target in experiment [3] is T1, human CCR5. As to the kind of experiment: cell-based or functional assay. The source holds these as a separate data set.
Experiment [4] addresses T1, human CCR5. The experiment in a line: cell ELISA on CCR5-expressing cells, hybridoma screening.

T1 sequence (P51681 whole entry): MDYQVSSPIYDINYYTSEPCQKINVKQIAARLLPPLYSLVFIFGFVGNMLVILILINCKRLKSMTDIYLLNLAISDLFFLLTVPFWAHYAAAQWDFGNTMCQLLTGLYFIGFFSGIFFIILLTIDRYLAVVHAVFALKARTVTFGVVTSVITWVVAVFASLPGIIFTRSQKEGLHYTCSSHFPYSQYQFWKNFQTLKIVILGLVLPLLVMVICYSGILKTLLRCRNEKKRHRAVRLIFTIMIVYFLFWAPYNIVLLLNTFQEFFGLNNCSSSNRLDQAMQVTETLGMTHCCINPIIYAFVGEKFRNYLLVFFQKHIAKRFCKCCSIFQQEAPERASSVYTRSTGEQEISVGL

B1: <CCR5>Pz03.1C5 (antibody, V domains shown)
VH: QVQLKQSGPGLVRPSQSLSITCTVSGFPLGIFGVHWVRQSPGKGLEWLGVIWKGGNTDYNAAFMSRLRITKDNSKSQVFFRMNSLQTDDTAIYYCAKVNLADAMDYWGQGTSVIVSS
VL: DIQMTQSPASLSASVGETVTITCRASGNIHGYLAWFQQKQGKSPQLLVYNTKTLAEGVPSRFSGSGSGTQFSLKINSLQPEDFGNYYCQHHYDLPRTFGGGTKLEIKR
notes: also called Antibody C; m<CCR5>Pz03.1C5
For the molecule B1, the binding result with human CCR5 [1] is recorded as “binds”. In the experiment with human CCR5 [2], the “IC50, PhenoSenseHIV assay (ViroLogic) using JRCSF strain” value is 0.16 µg/ml and the “IC50, cell-cell fusion assay (gp160-expressing HeLa cells with CEM.NKR-CCR5-Luc cells, luciferase)” value was determined as 0.38 µg/mL. In the experiment with human CCR5 [3], the “IC50, inhibition of HIV growth in human PBMC, JRCSF (p24 ELISA)” value is 0.013 µg/mL and the “IC50, inhibition of HIV growth in human PBMC, Nl-Bal (p24 ELISA)” value worked out at 0.029 µg/mL.

B2: <CCR5>Pz02.1C11 (antibody, V domains shown)
VH: QVQLKQSGPGLVRPSQSLSITCTVSGFPLGVFGVHWVRQSPGKGLEWLGVIWKGGNTDYNAAFMSRLRISKDNSKSQVFFRMNSLQTDDTAIYYCAKVNLADAMDYWGQGTSVIVSS
VL: DIQMTQSPASLSASVGETVTITCRSSGNIHGYLAWFQQKQGKSPQLLVYNTKALAEGVPSRFSGSGSGTQFSLKINNLQPEDFGIYYCQHHYDLPRTFGGGTKLEIKR
notes: also called Antibody B
For B2, in the experiment with human CCR5 [2], the “IC50, PhenoSenseHIV assay (ViroLogic) using JRCSF strain” value was 0.17 µg/ml and the “IC50, cell-cell fusion assay (gp160-expressing HeLa cells with CEM.NKR-CCR5-Luc cells, luciferase)” value is 0.79 µg/mL. Also, in the experiment with human CCR5 [3], the “IC50, inhibition of HIV growth in human PBMC, JRCSF (p24 ELISA)” value is 0.025 µg/mL and the “IC50, inhibition of HIV growth in human PBMC, Nl-Bal (p24 ELISA)” value worked out at 0.025 µg/mL. Moreover, the binding result with human CCR5 [4] is recorded as “binds”.

Source of the values: US20070036796A1 (ROCHE PALO ALTO, published 2007).
